Measured values published in publication PMC6041754 (Journal of Molecular Cell Biology, 2017).
Numbering of substitutions follows the chain as printed. Numbers in names are those of the source. Values belong to the binder of their own block, whether it stands above or below them.

Legend:
Ran^Δ181–216 = Ran^Δ181–216 (human, UniProt P62826 1-180); test: NMR
[1] = biological target: Ran (full-length, His6-tagged, from pET22b) (human, UniProt P62826 1-216); test: SPR

binding result (Ran^Δ181–216): binds
B1: Mog1 without a tag (co-expressed with Ran from pRSFDuet-1) (natural protein)
chain: MEPTRDCPLFGGAFSAILPMGAIDVSDLRPVPDNQEVFCHPVTDQSLIVELLELQAHVRGEAAARYHFEDVGGVQGARAVHVESVQPLSLENLALRGRCQEAWVLSGKQQIAKENQQVAKDVTLHQALLRLPQYQTDLLLTFNQPPPDNRSSLGPENLSPAPWSLGDFEQLVTSLTLHDPNIFGPQ
modifications: isotope labels (2H, 15N, ILV methyl 13CH3) as the sample required

fold reduction of binding affinity against wild-type Mog1 [1]: ~100 fold
B2: Mog1^E50K,E53K (natural protein)
chain: B1 chain with E50K, E53K
